# Reference: paper PMC5646240, “Norovirus Escape from Broadly Neutralizing Antibodies Is Limited to Allostery-Like Mechanisms” (mSphere, 2017)
# B1: monoclonal antibody 2D3.7 (IgA) (antibody, V domains shown)
# VH: VQLQESGPGLVAPSQSLSITCTVSGFSLTSYGVHWIRQPSGKGLEWLGVIWPGGSTNYNSALMSRLSISKDNSQSQVVLKMNSLQTDDSAMYYCARGRVAAWFAYWGQGTLVTVSA
# VL: DIVMTQSQKFMSTSVGDRVSVTCTASQNVGTSVAWYLQRPGQSPEALIYSASYRNSGVPDRFTGSGSGTDFTLTISNVQSEDLADYFCQQYNNYPFTFGSGTKLEIK
# notes: VH before the CDR3 loop; heavy chain CDR3 loop as printed; nearly identical to the light chain variable domain of PDB 2AEQ; IgA; also called MAb 2D3; IgA MAb 2D3
# B2: murine norovirus MNV1.CW3 (GV/MNV1/2002/USA) virions, capsid protein (natural protein)
# chain: MRMSDGAAPKANGSEASGQDLVPAAVEQAVPIQPVAGAALAAPAAGQINQIDPWIFQNFVQCPLGEFSISPRNTPGEILFDLALGPGLNPYLAHLSAMYTGWVGNMEVQLVLAGNAFTAGKVVVALVPPYFPKGSLTTAQITCFPHVMCDVRTLEPIQLPLLDVRRVLWHATQDQEESMRLVCMLYTPLRTNSPGDESFVVSGRLLSKPAADFNFVYLTPPIERTIYRMVDLPVIQPRLCTHARWPAPVYGLLVDPSLPSNPQWQNGRVHVDGTLLGTTPISGSWVSCFAAEAAYKFQSGTGEVATFTLIEQDGSAYVPGDRAAPLGYPDFSGQLEIEVQTETTKTGDKLKVTTFEMILGPTTNADQAPYQGRVFASVTAAASLDLVDGRVRAVPRSIYGFQDTIPEYNDGLLVPLAPPIGPFLPGEVLLRFRTYMRQIDTADAAAEAIDCALPQEFVSWFASNAFTVQSEALLLRYRNTLTGQLLFECKLYNEGYIALSYSGSGPLTFPTDGIFEVVSWVPRLYQLASVGSLATGRMLKQ
# notes: capsid protein (VP1) of murine norovirus 1, strain MNV1.CW3, in whole infectious virions; S domain and P domain; Whole virions with a T=3 capsid; the antigen of the antibodies is the capsid protein; The UniProt entry recalled is of MNV1, not checked for the CW3 clone; also called MVV1; source: RAW 264.7 cells, infected; concentrated virus stock (ELISA); purified virions (ultracentrifugation, …)
# Assays:
# [1] = biological target: murine norovirus S99 (Berlin/06/06/DE) virions, capsid protein (murine norovirus (strain S99))
# [2] = biological target: murine norovirus WU11 (GV/WU11/2005/USA) virions, capsid protein (Murine norovirus GV/WU11/2005/USA, UniProt A7YJZ2, strain); experiment: cell-based or functional assay
# [3] = biological target: murine norovirus WU20 (GV/WU20/2005/USA) virions, capsid protein (Murine norovirus GV/WU20/2005/USA, UniProt A7YJZ8, strain); experiment: cell-based or functional assay
# [4] = biological target: murine norovirus MNV1.CW3 (GV/MNV1/2002/USA) virions, capsid protein (murine norovirus (MNV1.CW3), UniProt Q80J94); experiment: cell-based or functional assay
# [5] = biological target: murine norovirus CR1 (GV/CR1/2005/USA) virions, capsid protein (Murine norovirus GV/CR1/2005/USA, UniProt A7YK19, strain); experiment: cell-based or functional assay
# [6] = biological target: murine norovirus CR3 (GV/CR3/2005/USA) virions, capsid protein (Murine norovirus GV/CR3/2005/USA, UniProt A7YK22, strain); experiment: cell-based or functional assay
# [7] = biological target: murine norovirus CR6 (GV/CR6/2005/USA) virions, capsid protein (Murine norovirus GV/CR6/2005/USA, UniProt A7YK31, strain); experiment: cell-based or functional assay
# [8] = biological target: murine norovirus CR7 (GV/CR7/2005/USA) virions, capsid protein (Murine norovirus GV/CR7/2005/USA, UniProt A7YK34, strain); experiment: cell-based or functional assay
# [9] = biological target: murine norovirus MNV3 virions, capsid protein (Murine norovirus, strain MNV3, UniProt Q38JA1, strain); experiment: cell-based or functional assay
# [10] = biological target: murine norovirus MNV4 virions, capsid protein (Murine norovirus, strain MNV4, UniProt Q38J98, strain); experiment: cell-based or functional assay
# [11] = biological target: T1, human norovirus genogroup I Norwalk virus (NV) virus-like particles (Human norovirus GI, strain of AY502016 …, UniProt Q6EAV2); experiment: ELISA; data not shown; HuNoV VLPs (1 µg of each VLP per well in 100 µl PBS, 24 h at 4°C) tested with the MAbs; settings: both partners purified
# T1 construct: capsid protein of human norovirus genogroup I strain Norwalk virus, as virus-like particles; also called Norwalk virus VLP; source: provided by Grant Hansman (University of Heidelberg); expressed and purified as previously described (62)
# [12] = biological target: T2, human norovirus GII.4 Saga (2006-Saga) virus-like particles (Norovirus Hu/GII-4/Saga1/2006/JP …, UniProt B5BTR4, strain); experiment: as above; settings: both partners purified
# T2 construct: capsid protein of human norovirus GII.4 Saga (2006), as virus-like particles; also called 2006-Saga [GII.4]; source: provided by Grant Hansman (University of Heidelberg); expressed and purified as previously described (62)
# [13] = biological target: T3, human norovirus GII.4 Sydney (2012-Sydney) virus-like particles (Human norovirus GII.4 …, UniProt K4LM89, strain); experiment: as above; settings: both partners purified
# T3 construct: capsid protein of human norovirus GII.4 Sydney (2012), as virus-like particles; also called 2012-Sydney [GII.4]; source: provided by Grant Hansman (University of Heidelberg); expressed and purified as previously described (62)
# [14] = biological target: T4, human norovirus GII.10 Vietnam026 virus-like particles (Human norovirus GII.10 Vietnam026, UniProt Q5F4T5, strain); experiment: as above; settings: both partners purified
# T4 construct: capsid protein of human norovirus GII.10 Vietnam026, as virus-like particles; also called Vietnam026 [GII.10]; source: provided by Grant Hansman (University of Heidelberg); expressed and purified as previously described (62)
# [15] = biological target: T5, human norovirus GII.12 Hiro virus-like particles (Human norovirus GII.12 Hiro, UniProt Q54AD6, strain); experiment: as above; settings: both partners purified
# T5 construct: capsid protein of human norovirus GII.12 Hiro, as virus-like particles; also called Hiro [GII.12]; source: provided by Grant Hansman (University of Heidelberg); expressed and purified as previously described (62)
# [16] = biological target: the molecule itself; experiment: cryo-EM structure; 2D3 Fab added to purified infectious MNV1 virions; image reconstruction at 8.7 Å (FSC 0.143) / 9.9 Å (FSC 0.5), fitted with atomic models of the P domain dimer and a modelled Fab
binder,measurement,setting,value
B1,"plaque neutralization assay: 5 × 10^4 PFU with 0 to 1,000 ng MAb, 30 min at 37°C; virus titer relative to no antibody",[1],> 1 log
same,"plaque neutralization assay: 5 × 10^4 PFU with 0 to 1,000 ng MAb, 30 min at 37°C; virus titer relative to no antibody",[2],≥ 1 log
same,"plaque neutralization assay: 5 × 10^4 PFU with 0 to 1,000 ng MAb, 30 min at 37°C; virus titer relative to no antibody",[3],≥ 1 log
same,"plaque neutralization assay: 5 × 10^4 PFU with 0 to 1,000 ng MAb, 30 min at 37°C; virus titer relative to no antibody",[4],≥ 1 log
same,"plaque neutralization assay: 5 × 10^4 PFU with 0 to 1,000 ng MAb, 30 min at 37°C; virus titer relative to no antibody",[5],≥ 1 log
same,"plaque neutralization assay: 5 × 10^4 PFU with 0 to 1,000 ng MAb, 30 min at 37°C; virus titer relative to no antibody",[6],≥ 1 log
same,"plaque neutralization assay: 5 × 10^4 PFU with 0 to 1,000 ng MAb, 30 min at 37°C; virus titer relative to no antibody",[7],≥ 1 log
same,"plaque neutralization assay: 5 × 10^4 PFU with 0 to 1,000 ng MAb, 30 min at 37°C; virus titer relative to no antibody",[8],≥ 1 log
same,"plaque neutralization assay: 5 × 10^4 PFU with 0 to 1,000 ng MAb, 30 min at 37°C; virus titer relative to no antibody",[9],≥ 1 log
same,"plaque neutralization assay: 5 × 10^4 PFU with 0 to 1,000 ng MAb, 30 min at 37°C; virus titer relative to no antibody",[10],≥ 1 log
same,binding result,[11],no binding
same,binding result,[12],no binding
same,binding result,[13],no binding
same,binding result,[14],no binding
same,binding result,[15],no binding
B2,binding result,[16],binds
